Positions count from the first letter of the chain named. Names may count otherwise.
B1: E62K (designed binder)
chain: SMEEEVEKAAKEYEKKKKEAIEKHLEKLKAKDKEAAERFLKELEEAAKEYAKDEAKTMSEEKAKRRAKKYKEKVLLSELSEEEQKEIKEAEEKLVRTILKYVEEAAK
B2: E61P (designed binder)
chain: B1 chain with E61P, K62E
B3: Y101M (designed binder)
chain: B1 chain with K62E, Y101M
B4: K33T (designed binder)
chain: B1 chain with K33T, K62E
B5: E60N (designed binder)
chain: B1 chain with E60N, K62E
B6: K17D (designed binder)
chain: B1 chain with K17D, K62E
B7: E103M (designed binder)
chain: B1 chain with K62E, E103M
B8: V95G (designed binder)
chain: B1 chain with K62E, V95G
B9: A9V (designed binder)
chain: B1 chain with A9V, K62E
B10: E42P (designed binder)
chain: B1 chain with E42P, K62E
B11: A67Q (designed binder)
chain: B1 chain with K62E, A67Q
B12: A105P (designed binder)
chain: B1 chain with K62E, A105P
B13: K107H (designed binder)
chain: B1 chain with K62E, K107H
B14: K100V (designed binder)
chain: B1 chain with K62E, K100V
B15: R38S (designed binder)
chain: B1 chain with R38S, K62E
B16: A47L (designed binder)
chain: B1 chain with A47L, K62E
B17: K8D (designed binder)
chain: B1 chain with K8D, K62E
B18: E72H (designed binder)
chain: B1 chain with K62E, E72H
B19: K17G (designed binder)
chain: B1 chain with K17G, K62E
B20: L94G (designed binder)
chain: B1 chain with K62E, L94G
B21: L76R (designed binder)
chain: B1 chain with K62E, L76R
B22: E92I (designed binder)
chain: B1 chain with K62E, E92I
B23: E82K (designed binder)
chain: B1 chain with K62E, E82K
B24: A55P (designed binder)
chain: B1 chain with A55P, K62E

Biological target: T1, TNFR1 (Homo sapiens, UniProt P19438)
T1 chain: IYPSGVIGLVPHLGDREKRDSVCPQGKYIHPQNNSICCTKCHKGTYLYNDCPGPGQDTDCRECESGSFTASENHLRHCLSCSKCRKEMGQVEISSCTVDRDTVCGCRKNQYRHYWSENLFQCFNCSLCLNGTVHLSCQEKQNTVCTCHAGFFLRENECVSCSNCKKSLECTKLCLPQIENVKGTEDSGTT
Assay: yeast display SC50

| Binder | apparent Kd (screen) [nM] |
| --- | --- |
| B1 | 0.49 |
| B2 | 0.869 |
| B3 | 2.25 |
| B4 | 0.49 |
| B5 | 3.63 |
| B6 | 5.31 |
| B7 | 0.593 |
| B8 | 5.84 |
| B9 | 0.49 |
| B10 | 4.83 |
| B11 | 11.4 |
| B12 | 0.653 |
| B13 | 1.86 |
| B14 | 1.4 |
| B15 | 2.73 |
| B16 | 13.8 |
| B17 | 1.4 |
| B18 | 2.73 |
| B19 | 2.73 |
| B20 | 2.25 |
| B21 | 7.07 |
| B22 | 12.5 |
| B23 | 0.446 |
| B24 | 12.5 |

Reference: PMC12416549 (2024)
